For data set [1], the target named is D-glucagon (all D-amino acids), biotinylated (Homo sapiens) (UniProt P01275). Description: pulldown. Particulars: D-DNA; 37 C, 1 mM Mg, 1 mM Ca, pH 7.4; direct pull-down.
The target of data set [2] is glucagon, L-form, biotinylated (glucagon1-29-AEEAc-AEEAc-biotin) (Homo sapiens) (UniProt P01275). Description: pulldown. The note with it: L-DNA; 37 C, 1 mM Mg, 1 mM Ca, pH 7.4; direct pull-down, spiegelmer.
Sequence of glucagon, L-form, biotinylated (glucagon1-29-AEEAc-AEEAc-biotin) (Homo sapiens) (P01275 53-81): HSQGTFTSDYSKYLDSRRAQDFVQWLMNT

As to “CGACTCGAGAGGAAAGGTTGGTAAAGGTTCGGTTGGATTCACTCGAGTCG [259-H6-001 (aptamer)]”, the Kd in data set [1] was 33 nM. That is a double-digit nanomolar value.
Take “GCAGTGGGGAAATGGGAGGGCTAGGTGGAAGGAATCTGAGCTACTGC [257-E1-001 (spiegelmer)]”: in data set [2], the Kd is 179 nM.
On to “GCAGTGGGGAAATGGGAGGGCTAGGTGGAAGGAATCTGAGCTACTGC [257-E1-001 (aptamer)]”, for which the dissociation constant Kd in data set [1] stood at 137 nM. This lies in the sub-micromolar range.

What is called Kd is the concentration at which binding is half-saturated.

The record behind these values is patent publication US20150232852.
